Laboratory results published in patent US6818617B1 (Temple University- Of The Commonwealth System of Higher …, priority 1997, dated 2004).
Entries after “also recorded” stand apart in the source; their conditions may differ. Like-named read-outs stand apart in the source and are kept apart here.

How the values were obtained:
α6β1 = target: T1, α6β1 (Homo sapiens, UniProt P05556+P23229); assay: K562 (α6+) cell adhesion to laminin; format: cell-based
T1 construct: expressed in transfected cells; host or cells: K562 transfected with α6
Protocol: (§1) Adhesion of cultured cells labeled with 5-chloromethylfluorescein diacetate (CMFDA) was performed as described earlier (Marcinkiewicz et al., Blood 90:1565-1575 (1997)). […] Wells were blocked by 1% BSA in HBSS buffer. Cells were labeled with fluorescein by incubation with 12.5 AM CMFDA in HBSS buffer containing 1% BSA at 37° C. by 15 min. Unbound label was removed by washing with the same buffer. Labeled cells (1×10^5 per sample) were added to the well in the presence or absence of inhibitors and incubated at 37° C. for 30 min. Unbound cells were removed by aspiration, the wells were washed and bound cells were lysed by adding 0.5% Triton X-100. In parallel the standard curve was prepared in the same plate from known concentrations of labelled cells. The plate was read using a Cytofluor 2350 fluorescence plate reader (Millipore, Bedford, Mass.) at 485 nm EX(excitation) filter and 530 nm (emmision) filter.
(§2) The effect of each peptide on cell adhesion was determined as described above. […] Cells that attached to the plates were lysed with detergent, and fluorescence intensity was measured. Percent inhibition was measured at each concentration and IC50 was determined.

α4β1 [1] = target: T2, α4β1 (Homo sapiens, UniProt P05556+P13612); conditions: read-out: IC50, direct binding assay; Jurkat cells, α4β1, VCAM-Ig
Protocol: (§3) The direct binding assay (DBA) with VCAM-11 g alkaline phosphatase conjugate was performed using Jurkat (α4β1 expressing) and JY (α4β7 expressing) cells according to procedure described in Lobb et al, Cell Adhes. Commun. 3:385-398 (1995)).

α4β7 [2] = target: T3, α4β7 (Homo sapiens, UniProt P13612+P26010); conditions: read-out: IC50, direct binding assay; JY cells, α4β7, VCAM-Ig
Protocol: as §3

α4β7 [3] = target: T3, α4β7; assay: RPMI 8866 cell adhesion to MadCAM-1; format: cell-based; set-up: endogenous in cells; host or cells: JY cells (A11); RPMI 8866 cells (A12); conditions: RPMI 8866 cells, α4β7, ligand MadCAM-1
Protocol: as §1, §2

α5β1 = target: T4, α5β1 (Homo sapiens, UniProt P05556+P08648); assay: K562 cell adhesion to immobilized fibronectin; format: cell-based; conditions: 5 μg per sample of protein from fraction
T4 construct: host or cells: K562
Protocol: as §1

α4β1 [4] = target: T2, α4β1; assay: Jurkat cell adhesion to immobilized VCAM-1; format: cell-based; set-up: host or cells: Jurkat
Protocol: as §1
The cell adhesion assay (as described in Example 1) was used to study the inhibitory effect of the eluted fractions on Jurkat cell adhesion to immobilized VCAM-1 and on K562 cell adhesion to fibronectin. […]
as §2

αvβ3 = target: T5, αvβ3 (Homo sapiens, UniProt P05106+P06756); assay: VNRC3 (CHOαvβ3+) cell adhesion to immobilized vitronectin; format: cell-based
T5 construct: expressed in transfected cells; host or cells: CHO (VNRC3 cells), gift of Dr. M. Ginsberg
Protocol: as §1, §2

α4β1 integrin [5] = target: T6, α4β1 integrin (UniProt G3HZ55+P13612); assay: HP2/1 antibody binding to α4B2 cells by flow cytometry; set-up: species or system human; conditions: 60 nM EC3, 10 μg/ml HP 2/1, flow cytometry
T6 construct: expressed in transfected cells; host or cells: B2 CHO cells (α5-deficient), gift of Dr. Y. Takada
Protocol: (§4) Samples for flow cytometry analysis were prepared as described (Marcinkiewicz et al., Biochem. J. 371:118-124 (1996)), and analyzed in a Coulter Epics flow cytometer (Miami, Fla.).
(§5) The adhesion study was performed using CMFDA-labeled Jurkat cells in the absence or presence 1 mM GRGDSP or GRGESP, or 10 μg/ml HP 2/1. Competition between EC3 and HP2/1 was also confirmed in cell suspension using FACS analysis. […] The experiment was performed using flow cytometry. Jurkat cells (open bars) or B2-CHO cells (CHO cells with deleted α5 transfected with α4) (closed bars) were incubated with 10 μg/ml HP 2/1 in the absence (a) or presence 60 nM EC3 (b) for 30 min at room temperature. After washing, 10 μg/ml of FITC-conjugated goat anti-mouse IgG was added and samples were incubated for another 30 min at room temperature. The samples were fixed by addition of 1% paraformaldehyde before measurement of fluorescence intensity.

α4β1 and α4β7 integrins = assay: Panel of α4 integrin cell adhesion assays; format: cell-based; conditions: range over assays
Protocol: as §1, §2

α4β1 [6] = target: T7, α4β1 (UniProt G3HZ55+P13612); assay: A2 (CHOα4+) cell adhesion to immobilized VCAM-1; format: cell-based, human; set-up: expressed in transfected cells; host or cells: CHO (A2 cells, α4+ α5+), gift of Dr. Y. Takada; conditions: A2 (CHOα4+) cells, ligand VCAM-1
Protocol: as §1, §2

[7] = tested on: lymphocyte infiltration of pancreatic Langerhans islets; assay: Lymphocyte infiltration of Langerhans islets in Non Obese Diabetic (NOD) mice; format: in vivo, mouse
Protocol: Female NOD mice from […] of age were purchased from Jackson Laboratory (Bar Harbor, Me.).
After nine weeks of treatment the animals were sacrificed by exposure to CO2. The pancreas was removed, frozen, and stored at −70° C. until the histological analysis. For the histological analysis, five μm sections of frozen tissue were fixed with acetone. For detection of infiltrating lymphocytes, the sections were stained with hematoxylin/eosin, and observed by light microscopy.

α4β1 [8] = target: T2, α4β1; assay: Jurkat cell adhesion to CS-1; format: cell-based; set-up: host or cells: Jurkat; conditions: Jurkat cells, ligand CS-1
Protocol: as §1, §2

αIIbβ3 [9] = target: T8, αIIbβ3 (Homo sapiens, UniProt P05106+P08514); assay: A5 (CHOαIIbβ3+) cell adhesion to immobilized fibrinogen; format: cell-based; conditions: A5 (CHOαIIbβ3+) cells, ligand Fg
Protocol: as §1, §2

α4β1 integrin [10] = target: T9, α4β1 integrin (Homo sapiens, UniProt P05556+P13612); assay: HP2/1 antibody binding to Jurkat cells by flow cytometry; conditions: 60 nM EC3, 10 μg/ml HP 2/1, flow cytometry
T9 construct: host or cells: Jurkat
Protocol: as §4, §5

αIIbβ3 [11] = target: T8, αIIbβ3; assay: ADP-induced platelet aggregation in platelet rich plasma (ADP PA); format: cell-based; set-up: endogenous in cells; host or cells: platelets in platelet rich plasma; conditions: Platelets, αIIbβ3, ligand Fg, 30 μM ADP
Protocol: Blood from a healthy donor was collected into a syringe containing sodium citrate as an anticoagulant. The anticoagulated blood was centrifuged at 400 g for 17 minutes, and platelet rich plasma (PRP) was removed by aspiration.

α4 inactive G190A mutant = target: T10, α4 inactive G190A mutant (Homo sapiens, UniProt P13612, G223A); assay: Adhesion of CHO cells transfected with α4 G190A mutant to immobilized EC3; format: cell-based; conditions: EC3 2 μg/well immobilized; adhesion identical with non transfected cells
T10 construct: expressed in transfected cells; host or cells: CHO, gift of Dr. Y. Takada
Protocol: as §1
EC3 (2 μg/well) and HP2/1 (1 μg/well) were immobilized on the 96well plate. The CHO cells were labeled with CMFDA and adhesion was performed as described above. […] Only A2 cells expressing wild type α4 adhered to immobilized HP2/1.

α4β1 [12] = target: T7, α4β1; assay: α4B2 (CHOα4+/α5−) cell adhesion to immobilized VCAM-1; format: cell-based, human; set-up: expressed in transfected cells; host or cells: B2 CHO cells (α5-deficient), gift of Dr. Y. Takada; conditions: α4B2 (CHOα4+/α5−) cells, ligand VCAM-1
Protocol: as §1
Chinese hamster ovary cells transfected with human α4 integrin were provided by Dr. Y. Takada (Scripps Research Institute, La Jolla, Calif.). […] The bound cells were lysed with 0.5% Triton X-100, and fluorescence was measured.
as §2

T1 sequence (P23229 24-938 limits assumed): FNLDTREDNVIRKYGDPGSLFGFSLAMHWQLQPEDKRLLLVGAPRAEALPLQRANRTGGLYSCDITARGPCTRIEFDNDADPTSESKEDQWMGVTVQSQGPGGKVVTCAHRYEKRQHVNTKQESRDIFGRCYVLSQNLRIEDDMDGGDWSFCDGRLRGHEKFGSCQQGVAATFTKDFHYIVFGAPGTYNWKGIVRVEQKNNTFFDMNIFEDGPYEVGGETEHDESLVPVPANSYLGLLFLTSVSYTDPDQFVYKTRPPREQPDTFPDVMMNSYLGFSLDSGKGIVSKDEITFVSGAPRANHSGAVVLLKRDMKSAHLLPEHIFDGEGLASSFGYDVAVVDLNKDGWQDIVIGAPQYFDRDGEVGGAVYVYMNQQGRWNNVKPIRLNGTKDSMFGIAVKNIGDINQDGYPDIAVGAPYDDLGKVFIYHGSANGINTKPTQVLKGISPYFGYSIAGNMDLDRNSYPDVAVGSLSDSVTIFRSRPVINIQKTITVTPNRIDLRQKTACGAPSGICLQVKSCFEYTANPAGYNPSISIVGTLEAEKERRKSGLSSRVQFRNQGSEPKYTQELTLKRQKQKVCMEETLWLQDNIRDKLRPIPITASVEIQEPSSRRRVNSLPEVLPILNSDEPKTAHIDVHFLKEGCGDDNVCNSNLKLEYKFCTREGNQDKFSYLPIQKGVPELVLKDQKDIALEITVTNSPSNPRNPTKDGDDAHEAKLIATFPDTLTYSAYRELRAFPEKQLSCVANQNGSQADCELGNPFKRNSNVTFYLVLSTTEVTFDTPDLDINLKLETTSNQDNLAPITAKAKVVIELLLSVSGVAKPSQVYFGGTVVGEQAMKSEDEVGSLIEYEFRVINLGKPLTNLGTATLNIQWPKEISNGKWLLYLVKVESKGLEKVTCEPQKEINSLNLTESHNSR
T1 sequence (P23229 942-1130 partner limits assumed): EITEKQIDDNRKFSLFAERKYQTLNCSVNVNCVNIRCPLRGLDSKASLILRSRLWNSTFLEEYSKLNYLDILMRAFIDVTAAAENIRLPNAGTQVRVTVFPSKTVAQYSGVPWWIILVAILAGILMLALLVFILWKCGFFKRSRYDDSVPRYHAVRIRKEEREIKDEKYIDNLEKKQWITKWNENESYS
T1 sequence (P05556 21-798): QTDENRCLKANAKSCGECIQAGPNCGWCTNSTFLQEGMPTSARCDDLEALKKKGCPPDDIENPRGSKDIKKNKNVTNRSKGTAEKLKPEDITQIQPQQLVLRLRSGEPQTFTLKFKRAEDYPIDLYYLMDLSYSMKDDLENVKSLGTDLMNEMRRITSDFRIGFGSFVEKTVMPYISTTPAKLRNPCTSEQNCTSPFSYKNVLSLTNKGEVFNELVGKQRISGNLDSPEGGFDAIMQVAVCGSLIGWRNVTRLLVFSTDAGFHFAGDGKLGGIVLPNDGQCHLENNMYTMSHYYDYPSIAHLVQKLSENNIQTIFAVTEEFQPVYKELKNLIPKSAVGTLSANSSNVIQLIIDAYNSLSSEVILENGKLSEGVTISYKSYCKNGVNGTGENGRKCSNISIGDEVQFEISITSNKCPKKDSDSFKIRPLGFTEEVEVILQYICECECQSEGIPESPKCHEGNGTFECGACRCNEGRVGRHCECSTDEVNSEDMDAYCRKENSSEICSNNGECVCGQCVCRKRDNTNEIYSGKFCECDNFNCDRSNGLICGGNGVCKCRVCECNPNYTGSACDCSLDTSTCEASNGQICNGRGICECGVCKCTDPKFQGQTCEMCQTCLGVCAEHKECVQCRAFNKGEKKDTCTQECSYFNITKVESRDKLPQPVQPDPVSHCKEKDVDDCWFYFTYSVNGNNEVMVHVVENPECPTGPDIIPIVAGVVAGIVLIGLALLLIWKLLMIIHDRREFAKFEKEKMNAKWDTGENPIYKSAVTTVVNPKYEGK
T5 sequence (P06756 31-889 limits assumed): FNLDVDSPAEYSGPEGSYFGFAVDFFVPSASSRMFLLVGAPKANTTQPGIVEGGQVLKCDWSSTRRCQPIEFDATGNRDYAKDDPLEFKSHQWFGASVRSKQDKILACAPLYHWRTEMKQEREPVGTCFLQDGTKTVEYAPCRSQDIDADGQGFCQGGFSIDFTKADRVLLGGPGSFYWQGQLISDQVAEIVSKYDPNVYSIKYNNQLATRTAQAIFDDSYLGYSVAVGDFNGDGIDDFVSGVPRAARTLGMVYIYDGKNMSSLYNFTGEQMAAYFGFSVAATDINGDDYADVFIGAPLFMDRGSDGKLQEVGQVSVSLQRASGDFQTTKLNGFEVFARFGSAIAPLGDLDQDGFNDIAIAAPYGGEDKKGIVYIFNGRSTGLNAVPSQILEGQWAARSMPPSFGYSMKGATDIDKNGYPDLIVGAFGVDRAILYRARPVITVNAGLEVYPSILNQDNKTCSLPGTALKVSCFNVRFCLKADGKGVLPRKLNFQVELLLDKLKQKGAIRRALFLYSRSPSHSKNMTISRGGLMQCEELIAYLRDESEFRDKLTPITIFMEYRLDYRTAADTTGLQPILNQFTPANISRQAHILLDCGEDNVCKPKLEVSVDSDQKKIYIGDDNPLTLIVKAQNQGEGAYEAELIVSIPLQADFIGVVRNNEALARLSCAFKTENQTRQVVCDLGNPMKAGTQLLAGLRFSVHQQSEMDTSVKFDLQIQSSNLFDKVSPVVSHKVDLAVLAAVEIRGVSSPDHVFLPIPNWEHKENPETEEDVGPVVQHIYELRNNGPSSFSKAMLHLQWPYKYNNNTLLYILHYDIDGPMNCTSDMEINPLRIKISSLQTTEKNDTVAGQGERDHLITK
T5 sequence (P06756 891-1048 partner limits assumed): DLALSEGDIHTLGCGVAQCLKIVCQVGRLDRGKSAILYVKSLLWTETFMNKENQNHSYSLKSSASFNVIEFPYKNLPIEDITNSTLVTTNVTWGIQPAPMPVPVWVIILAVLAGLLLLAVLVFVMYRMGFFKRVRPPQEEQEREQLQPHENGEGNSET
T5 sequence (P05106 27-788): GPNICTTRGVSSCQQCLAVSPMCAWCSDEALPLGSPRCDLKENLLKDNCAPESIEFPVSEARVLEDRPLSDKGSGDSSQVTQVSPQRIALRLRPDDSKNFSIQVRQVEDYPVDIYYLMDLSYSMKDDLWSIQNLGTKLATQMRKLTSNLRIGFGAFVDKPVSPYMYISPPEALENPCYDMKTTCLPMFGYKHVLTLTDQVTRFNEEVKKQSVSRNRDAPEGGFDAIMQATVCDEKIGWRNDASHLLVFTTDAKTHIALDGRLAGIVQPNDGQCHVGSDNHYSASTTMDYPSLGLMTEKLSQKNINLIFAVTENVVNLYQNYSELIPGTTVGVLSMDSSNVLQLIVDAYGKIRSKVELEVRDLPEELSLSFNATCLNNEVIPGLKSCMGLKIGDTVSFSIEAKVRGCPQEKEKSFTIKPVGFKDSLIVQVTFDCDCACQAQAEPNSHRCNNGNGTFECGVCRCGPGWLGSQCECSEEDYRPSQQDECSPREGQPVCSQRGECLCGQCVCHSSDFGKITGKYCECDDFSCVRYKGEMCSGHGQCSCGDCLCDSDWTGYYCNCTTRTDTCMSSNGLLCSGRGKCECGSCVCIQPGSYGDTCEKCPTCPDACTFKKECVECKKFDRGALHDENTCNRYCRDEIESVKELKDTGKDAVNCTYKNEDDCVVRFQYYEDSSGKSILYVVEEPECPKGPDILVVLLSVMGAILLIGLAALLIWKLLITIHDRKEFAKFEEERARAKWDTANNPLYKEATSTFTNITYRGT
T4 sequence (P08648 42-894 limits assumed): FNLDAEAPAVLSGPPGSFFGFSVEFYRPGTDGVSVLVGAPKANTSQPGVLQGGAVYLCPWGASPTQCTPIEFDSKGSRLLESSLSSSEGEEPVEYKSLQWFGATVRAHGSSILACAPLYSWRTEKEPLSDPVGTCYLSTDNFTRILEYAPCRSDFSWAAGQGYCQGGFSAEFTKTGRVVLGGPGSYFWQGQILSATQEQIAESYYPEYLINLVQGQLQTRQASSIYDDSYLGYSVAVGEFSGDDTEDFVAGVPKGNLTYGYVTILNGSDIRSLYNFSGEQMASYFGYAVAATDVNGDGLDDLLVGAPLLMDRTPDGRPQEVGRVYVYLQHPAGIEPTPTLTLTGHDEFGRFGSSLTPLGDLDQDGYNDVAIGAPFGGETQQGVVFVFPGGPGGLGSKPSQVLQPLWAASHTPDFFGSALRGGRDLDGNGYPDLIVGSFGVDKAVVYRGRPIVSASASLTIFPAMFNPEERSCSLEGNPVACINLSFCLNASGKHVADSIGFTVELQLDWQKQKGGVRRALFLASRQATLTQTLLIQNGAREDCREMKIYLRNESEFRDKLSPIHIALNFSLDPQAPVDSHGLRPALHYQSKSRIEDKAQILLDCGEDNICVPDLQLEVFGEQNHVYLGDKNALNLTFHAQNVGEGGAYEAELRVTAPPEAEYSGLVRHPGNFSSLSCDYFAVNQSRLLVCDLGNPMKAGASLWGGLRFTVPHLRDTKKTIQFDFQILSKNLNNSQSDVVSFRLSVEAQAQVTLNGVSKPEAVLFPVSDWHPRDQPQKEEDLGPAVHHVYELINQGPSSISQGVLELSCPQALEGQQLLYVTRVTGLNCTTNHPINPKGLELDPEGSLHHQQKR
T4 sequence (P08648 895-1049 partner limits assumed): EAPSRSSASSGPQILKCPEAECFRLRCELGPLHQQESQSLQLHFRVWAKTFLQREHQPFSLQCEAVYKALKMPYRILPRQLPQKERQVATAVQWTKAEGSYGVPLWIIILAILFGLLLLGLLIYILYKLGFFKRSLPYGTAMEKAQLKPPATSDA
T4 sequence (P05556 21-798): as the sequence (P05556 21-798) above

B1: EC-3 (protein, listed as Echis carinatus)
chain 1: NSVHPCCDPVKCEPREGEHCISGPCCRNCYFLRAGTVCKRAVGDDVDDYCSGITPDCPRNRYKGKED
chain 2: NSVHPCCDPVKCEPREGEHCISGPCCRNCKFLNAGTICKRAMLDGLNDYCTGISTDCPRNRYKGKED
For B1, the IC50 (α6β1; K562 (α6+) cells, α6β1, ligand Lm) was > 10 µM, the “inhibition of adhesion to laminin of K562 cells transfected with α6” value (α6β1; at concentration 10 μM) was “neither echistatin nor EC3 inhibited” and the IC50 (α4β1 [1]) was 28 nM. The IC50 (α4β7 [2]) was 6 nM, the IC50 (α4β7 [3]) was 5 nM and the “inhibition of binding of K562 cells to immobilized fibronectin” value (α5β1) was “inhibited binding”. For the same molecule, the “inhibitory effect on Jurkat cell binding to immobilized VCAM-1” value (α4β1 [4]; 5 μg per sample of protein from fraction) was “significant inhibitory effects”, the IC50 (α4β1 [4]; Jurkat cells, ligand VCAM-1, read-out: IC50, cell adhesion) was 25 nM and the IC50 (αvβ3; VNRC3 (CHOαvβ3+) cells, ligand Vn) was > 10 µM. The “inhibition of αvβ3-dependent adhesion” value (αvβ3; up to 10 μM) was “no inhibition”, the “inhibition of HP2/1 binding to α4B2 cells” value (α4β1 integrin [5]) was “inhibition of HP2/1 binding” and the IC50 (α4β1 and α4β7 integrins; anchorage-dependent and anchorage-independent cells, read-out: concentration of highly potent inhibition of interaction of cells expressing α4β1 with VCAM-1 or CS-1) was 20 to 300 nM. For the same molecule, the IC50 (α4β1 and α4β7 integrins; read-out: IC50, adhesion of cells expressing α4β1 and α4β7 integrins to VCAM-1 and MadCAM-1) was 5 to 300 nM, the IC50 (α4β1 [6]) was 30 nM and the “Number of Islets, Infiltration Score ++” value ([7]; ++ = ⅓ of the islet infiltrated, of 27 (echistatin) or 29 (EC-3) islets, nine weeks i.p.) was 7. The “Number of Islets, Infiltration Score +++” value ([7]; +++ = ½ or more of the islet infiltrated, of 27 (echistatin) or 29 (EC-3) islets, nine weeks i.p.) was 0, the “Number of Animals without infiltration” value ([7]; NOD mice, i.p. three times per week for nine weeks, echistatin 1 μg/mouse, EC-3 3 μg/mouse, 10 animals per group) was 2 and the “effect on lymphocyte infiltration in pancreatic islets of NOD mice (in words)” value ([7]; echistatin 1 μg/mouse, EC-3 3 μg/mouse, i.p. three times per week, nine weeks) was “reduced levels of lymphocyte infiltration; also recorded: can block lymphocyte invasion; also recorded: reduced the level of lymphocyte infiltration”. For the same molecule, the “Number of Islets, Infiltration Score −” value ([7]; − = no infiltration, of 27 (echistatin) or 29 (EC-3) islets, nine weeks i.p.) was 10, the IC50 (α4β1 [8]) was 100 nM and the IC50 (αIIbβ3 [9]) was 500 nM. The “inhibition of HP2/1 binding to Jurkat cells” value (α4β1 integrin [10]) was “No inhibitory effect”, the IC50 (αIIbβ3 [11]) was 1000 nM and the “interaction of inactive G190A α4 mutant with immobilized EC3” value (α4 inactive G190A mutant) was “did not interact”. For the same molecule, the IC50 (α4β1 [12]) was 30 nM.
